Data as given in patent publication US20260234247A1.
Substitutions are numbered along the chain they refer to.

B1: LK-RB1-34 (antibody, human IgG4 S228P, kappa, V domains shown)
VH: QVQLQQSGAELVKPGASVKLSCKASGYTFTEYTIHWVKQRSGQGLEWIGWFYPGSDSIKYNEKFKDKATLTADKSSSTVYMELSRLTSEDSAVYFCSRHEGPYFTSQYYFDYWGQGTTLTVSS
VL: DILLTQSPAILSVSPGERVSFSCRASRYIGTSIHWYQQRTNGSPRLLIKYASESISGIPSRFSGSGSGTDFTLSINSVESEDIADYYCQQSNTWPLTFGAGTKLELKR
B2: LK-RB1-35 (antibody, human IgG4 S228P, kappa, V domains shown)
VH: DVQLQESGPGLEKPSQSLSLTCSVTGYSITRGYQWNWIRQFPGNKLEWMGYISYDGSNNYNPSLKNRISITRDASKNQFFLKLNSVTTEDTATYYCARRSYNSIDYWGQGTTLTVSS
VL: DIVLTQSPATLSVTPGDSVSLSCRASQSISSNLHWYQQKSHESPRLLIKYASQSISGIPSRFSGSGSGTDFTLSINSVETEDFGMYFCQQSNSWPLTFGAGTKLELKR
B3: LK-RB1-36 (antibody, human IgG4 S228P, kappa, V domains shown)
VH: B2 VH with T71I, A74T
VL: B2 VL with S31N
B4: LK-RB1-37 (antibody, human IgG4 S228P, kappa, V domains shown)
VH: QVQLQQPGAELVKPGASVKLSCKASGYTFTSYWMHWVKQRPGRGPEWIGRIDPNSGYARYNEKFKNKATLTADKPSSTADMHLSSLTSEDSAVYYCTRSFITTAEWFFDVWGTGTTVTVSS
VL: B1 VL with R27Q, Y28S, T40R, A51T, T93S, L96H, A100G
B5: LK-RB1-38 (antibody, human IgG4 S228P, kappa, V domains shown)
VH: DVQLQESGPGLVQPSQSLSLTCSVTGYSITSGYQWNWIRQLPGNKLEWMAYISFDGSNNYNPSLKNRISITRDTSKNQFFLKLKSVTTEDTATYYCARRDYDGVAYWGQGTLVTVSA
VL: B2 VL with D1E, S18R, S28N, S31N, N32Y, E42G, L47I
B6: LK-RB1-39 (antibody, human IgG4 S228P, kappa, V domains shown)
VH: EVQLQQSGAELVRPGASVKLSCTASGFNIKDDYVHWVNQRPEQGLEWIGWIDPENGDTGYASKFQDKATITADTSSNTAYLHLSSLTSEDTAVYYCTTTRWTGSYWGQGTTLTVSS
VL: QIVLTQSPAIMSASPGEKVTITCSASSSVNYMHWFQQKPGSSPKLWIYSTANLASGVPARFSGSGSGTSYSLTISRMEAEDAATYYCQQRSSYPPTWTFGGGTKLEIKR
B7: LK-RB1-42 (antibody, human IgG4 S228P, kappa, V domains shown)
VH: QVQLQQPGAELVKPGTSVKLSCKASGYSFISYWVYWVKQRPGQGLEWIGMIHPNSGSTNFNEKFRYKATLTVDKSSSTAYIQLSSLTSEDSAVYYCGRSDDGYPYHAMDSWGQGTSVTVSS
VL: DIVMTQSQKFMSTSVGDRVSVTCKASQNVGTNVAWYQQKPGQSPKALIYSASYRFSGVPDRFTGSGSGTDFTLTIGNVQSEDLAEYFCHQYKNYPLTFGGGTKLEIKR
B8: LK-RB1-43 (antibody, human IgG4 S228P, kappa, V domains shown)
VH: EFQLQQSGPELMKPGASVKISCKASGYSFTDYNMNWVKQSNGKSLEWIGIIDPNYGTTTYNQKFKGRATLTVDQSSNTAYMQLNSLTSEDSAVYYCAREGRYSWFAYWGQGTLVTVSA
VL: DIQMTQSPGALSVSVGETVTITCRASENINSNLAWYQQKQGKSPQLLVYAATNLADGVPSRFSGSGSGTQYSLKINSLQSEDFGSYHCQHFWGTPFTFGSGTKLEIKR
B9: LK-RB1-44 (antibody, human IgG4 S228P, kappa, V domains shown)
VH: QVQLQQSGTELAKPGASVKLSCKASGYTFTNYWMHWIKQRPGQGLEWIGYVHPTSDYTKYNQKFKDKATLTADKSSSTAYMQLNSLTYEDSAVYYCTRSSLYDTNYVFDSWGQGTTLTVSS
VL: DILLTQSPAILSVSPGERVSFSCRASQSIGRSIHWFQQRTNGSPSLLIKYASESISGIPSRFSGGGSGTDFTLSISNVESEDIADYYCQQSNNWPFTFGSGTKLEIKR
B10: LK-RB1-45 (antibody, human IgG4 S228P, kappa, V domains shown)
VH: B9 VH with K13R, Y32F, H52N
VL: B9 VL with F36Y, S45R
B11: LK-RB1-46 (antibody, human IgG4 S228P, kappa, V domains shown)
VH: EVQLQQSGPELVKPGASVKISCKTSGYTFTDYYMNWVKQSHGKSLEWIGDIYPINGDISYNQKFKGKATLTVDKSSSTVYMEIRSLTYEDSAVYYCARLAQTTSGGFDYWGQGTTLTVSS
VL: DIVLTQSPTSLAVSLGQRAIISCKASQSVSFAGTSLMHWYQQKPGQQPKLLIYRASNLKAGVPTRFSGSGSRTDFTLNIHPVEEDDAATYYCQQSREYPMYTFGGGTKLEIKR
B12: LK-RB1-50 (antibody, human IgG4 S228P, kappa, V domains shown)
VH: QVQLKQSGPGLVQPSQSLSITCTVSGFSLTSYGVHWVRQSPGKGLEWLGVIWRGGNTDYNAPFVSRLSITKDNSQSQVFFKMNSLEADDTAIYYCAKNSLDVYSSWYFDVWGTGTTVTVSS
VL: QIVLSQSPAILSAFPGEKVTMTCRASSSVSFMHWYQQKPGSSPKPWIYATSNLASGVPARFSGSGSGTSYSLTISRVEAEDAATYYCQQWSSNPLTFGAGTKLELKR
B13: LK-RB1-51 (antibody, human IgG4 S228P, kappa, V domains shown)
VH: QVQIQQSGAELVKPGASVKLSCKASGYTFTEFPIHWIKQRSGQGLEWIGWFYPGSDNMNYNEKFKDKATLTADKSSSTVYMELSRLTSEDSAVYFCARHENAYFYAMDYWGQGTSVTVSS
VL: ENVLTQSPAIMSASLGEKVTMSCRASSSVNYMYWYQQKSDASPKIWIYYTSNLAPGVPARFSGSGSGNSYSLTISSMEGEDAATYYCQQFTSSPFTFGTGTKLEIKR
B14: LK-RB1-54 (antibody, human IgG4 S228P, kappa, V domains shown)
VH: DVQLQESGPGLVKPSQSLSLTCSVTGYSITSGFYWNWIRQFPGNKLEWMGHISYDGTNNYNPSLKNRISITRDTSKNLFFLKLNSVTTEDTATFHCARGGYGGSYGFDYWGQGTTLTVSS
VL: B13 VL with I45L, A59V, F95W, T99G
B15: LK-RB1-56 (antibody, human IgG4 S228P, kappa, V domains shown)
VH: QVQLKQSGPGLVQPSQSLSITCSVSGFSLTNYGVHWVRQSPGKGLEWLGVIWRGGSTDNNAAFMSRLSITKDNSKSQVFFKMNSLQADDTAIYYCAKNSDFYGSSWYFDVWGTGTTVTVSS
VL: B12 VL with F14S, S92R, L95P
B16: LK-RB1-58 (antibody, human IgG4 S228P, kappa, V domains shown)
VH: B15 VH with S23T, N31T, N59Y, K81R, I92R, D100L, F101Y
VL: B12 VL with F14S, L95P, A99G, L105I
B17: LK-RB1-59 (antibody, human IgG4 S228P, kappa, V domains shown)
VH: QIQLVQSGPELKKPGETVKISCKASGYTFTTYGMSWVKQAPGKGLKWMGWINTYSGVPTYADDFKGRFAFSLETSASTAYLQINNLKNEDTATYFCARRRIYYGNKGYAMDYWGQGTSVTVSS
VL: B8 VL with G9A, A10S, N30Y, A34V, A50T, Y71F, H87Y, F96W, S100G
B18: LK-RB2-8 (antibody, human IgG4 S228P, kappa, V domains shown)
VH: QIQLVQSGPELKKPGETVKISCKASGYSFASYGMGWVKQAPGKGLKWLGWINTHSGVPTYADDFKGRFAFSLETSASTAYLQINNLKNEDTATYFCAHYGRPWFPYWGQGTLVTVSA
VL: DIQMTQSPASLSASVGETVTITCRTSENIYSYLAWYQQKQGKSPQLLVYNAKSLAEGVPSRFSGSGSGTQFSLRINSLQPEDFGTYYCQQHYETPLTFGAGTKLELKR
B19: LK-RB2-16 (antibody, human IgG4 S228P, kappa, V domains shown)
VH: B18 VH with S28T, A30T, S31T, G42E, L48M, H54N, V57A, A61G, P105A
VL: B18 VL with T25A, Q37H, K42E, S53T, R74K, T85S, Q90H, E93N, T94I
B20: LK-RB2-25 (antibody, human IgG4 S228P, kappa, V domains shown)
VH: QVQLKESGPGLVAPSQSLSITCTVSGFSLTSYGVHWVRQPPGKGLEWLGVIWAGGSTKYNSALMSRLSINKDNSKSQVFLKMNSLQTDDTAMYYCARDQMVRSAMDYWGQGTSVTVSS
VL: DIQMIQSPSSMFASLGDRVSLSCRASQGIRGNLDWYQQKPGGTIKLLIYSTSNLNSAVPSRFSGSGSGSDYSLTISNLESEDFADYYCLQRNASPYTFGGGTKLEIKR
B21: LK-RB2-26 (antibody, human IgG4 S228P, kappa, V domains shown)
VH: B20 VH with K58D, S61A, L63F, M64I, S68N, N70S, N73I, K75E, L80F, K81R
VL: B20 VL
B22: LK-RB2-27 (antibody, human IgG4 S228P, kappa, V domains shown)
VH: DVKLVESGGGLVKPGGSLKLSCAASGFTFSSYSMSWVRQTPEKRLEWVATISTGGSYTYYPDSVKGRFTISRDNAKNTLYLQMSSLKSEDTAMFYCTRGSMDYWGQGTSVTVSS
VL: DILMTQSPSSMSVSLGDTVSITCHASQDISSNIGWLQQKPGNSFKGLIYHGTNLEDGVPSRFSGSGSGADYSLTISSLESEDFADYYCVQYAQFPYTFGGGTKLEIKR
B23: LK-RB2-28 (antibody, human IgG4 S228P, kappa, V domains shown)
VH: B22 VH with V64M
VL: B22 VL with T22A
B24: 15G8 (antibody, human IgG4 S228P, kappa, V domains shown)
VH: DVQLQGSGPGLVKPSETLSLTCSVTGYSITSGYYWNWIRQFPGKKLEWMGYISYDGSNNYNPSLKNRITISRDTSKNQFSLKLNSVTAADTATYYCAHGYSYYYAMDAWGQGTSVTVSS
VL: DIQMTQSPSSLSASVGDRVTITCRTSQDISNYLNWYQQKPGKAVKLLISYTSRLHSGVPSRFSGSGSGTDYTLTISSLQPEDFATYYCQQGNTLPTFGQGTKLEIKR

Assays:
[1] = target: Rhesus LILRB1 (NP_001035762.2) on CHOK1 cells (rhesus macaque) (UniProt F7H3G7); assay: flow cytometry on CHOK1-rhesus LILRB1 (NP_001035762.2) cells
[2] = target: Rhesus LILRB1 (NP_001035762.2) on CHOK1 cells (rhesus macaque) (UniProt F7H3G7); assay: cell based blocking assay on CHOK1-rhesus LILRB1 (NP_001035762.2) cells; blocked ligand not named
[3] = target: Cynomolgus LILRB2 on CHOK1 cells (cynomolgus); assay: flow cytometry on CHOK1-cyno LILRB2 cells

Binder	EC50 [1] [nM]	EC50 [2] [nM]	Top Inhibition (%) [2] [%]	EC50 [3] [nM]
B1	8.06	–	–	–
B2	0.64	–	–	–
B3	0.54	–	–	–
B4	37.7	–	–	–
B5	4.97	–	–	–
B6	0.36	0.16	73.1	–
B7	59.8	–	–	–
B8	1.62	–	–	–
B9	769	–	–	–
B10	96.1	–	–	–
B11	2.71	–	–	–
B12	11.2	5.68	57.8	–
B13	21.4	0.87	64.9	–
B14	–	1.2	54	–
B15	29.2	2.42	15.9	–
B16	158	1.42	45.4	–
B17	40.2	–	–	–
B18	15.1	–	–	–
B19	18.5	–	–	–
B20	–	–	–	1.48
B21	–	–	–	2.11
B22	–	–	–	2.14
B23	–	–	–	2.03
B24	24.1	4.56	88.1	–
